Measurements reported in patent publication US7205275 (dated 2007).
Like-named read-outs stand apart in the source and are kept apart here. Values belong to the binder of their own block, whether it stands above or below them. Where no end group is shown, it is not given here. mPEG 5K = methoxy-PEG 5 kDa coupled via the N-terminal cysteine

B4: human Ang-2 (protein)
chain: YNNFRKSMDSIGKKQYQVQHGSCSYTFLLPEMDNCRSSSSPYVSNAVQRDAPLEYDDSVQRLQVLENIMENNTQWLMKLENYIQDNMKKEMVEIQQNAVQNQTAVMIEIGTNLLNQTAEQTRKLTDVEAQVLNQTTRLELQLLEHSLSTNKLEKQILDQTSEINKLQDKNSFLEKKVLAMEDKHIIQLQSIKEEKDQLQVLVSKQNSIIEELEKKIVTATVNNSVLQKQQHDLMETVNNLLTMMSTSNSAKDPTVAKEEQISFRDCAEVFKSGHTTNGIYTLTFPNSTEEIKAYCDMEAGGGGWTIIQRREDGSVDFQRTWKEYKVGFGNPSGEYWLGNEFVSQLTNQQRYVLKIHLKDWEGNEAYSLYEHFYLSSEELNYRIHLKGLTGTAGKISSISQPGNDFSTKDGDNDKCICKCSQMLTGGWWFDACGPSNLNGMYYPQRQNTNKFNGIKWYYWKGSGYSLKATTMMIRPADF

Key:
[1] = molecular target: Negative Control Peptibody 4883; assay: ELISA
[2] = molecular target: Negative Control Peptibody 4883; assay: ELISA; remark: listed apart in the source
human Ang-2 = molecular target: B4; assay: competition ELISA vs Tie-2
[3] = molecular target: Negative Control Peptibody 4883; assay: ELISA; remark: listed apart in the source

binding result [1]: no binding
B1: human Ang-1 (protein)
chain: SNQRRSPENSGRRYNRIQHGQCAYTFILPEHDGNCRESTTDQYNTNALQRDAPHVEPDFSSQKLQHLEHVMENYTQWLQKLENYIVENMKSEMAQIQQNAVQNHTATMLEIGTSLLSQTAEQTRKLTDVETQVLNQTSRLEIQLLENSLSTYKLEKQLLQQTNEILKIHEKNSLLEHKILEMEGKHKEELDTLKEEKENLQGLVTRQTYIIQELEKQLNRATTNNSVLQKQQLELMDTVHNLVNLCTKEGVLLKGGKREEEKPFRDCADVYQAGFNKSGIYTIYINNMPEPKKVFCNMDVNGGGWTVIQHREDGSLDFQRGWKEYKMGFGNPSGEYWLGNEFIFAITSQRQYMLRIELMDWEGNRAYSQYDRFHIGNEKQNYRLYLKGHTGTAGKQSSLILHGADFSTKDADNDNCMCKCALMLTGGWWFDACGPSNLNGMFYTAGQNHGKLNGIKWHYFKGPSYSLRSTTMMIRPLDF

binding result [2]: no binding
B2: mouse Ang-2 (protein)
chain: YSNFRKSVDSTGRRQYQVQNGPCSYTFLLPETDSCRSSSSPYMSNAVQRDAPLDYDDSVQRLQVLENILENNTQWLMKLENYIQDNMKKEMVEIQQNVVQNQTAVMIEIGTSLLNQTAAQTRKLTDVEAQVLNQTTRLELQLLQHSISTNKLEKQILDQTSEINKLQNKNSFLEQKVLDMEGKHSEQLQSMKEQKDELQVLVSKQSSVIDELEKKLVTATVNNSLLQKQQHDLMETVNSLLTMMSSPNSKSSVAIRKEEQTTFRDCAEIFKSGLTTSGIYTLTFPNSTEEIKAYCDMDVGGGGWTVIQHREDGSVDFQRTWKEYKEGFGSPLGEYWLGNEFVSQLTGQHRYVLKIQLKDWEGNEAHSLYDHFYLAGEESNYRIHLTGLTGTAGKISSISQPGSDFSTKDSDNDKCICKCSQMLSGGWWFDACGPSNLNGQYYPQKQNTNKFNGIKWYYWKGSGYSLKATTMMIRPADF

IC50 (human Ang-2): 11.7 nM
Binder: C(mPEG 5K)GGGGGAQTNFMPMDDLEQRLYEQFILQQGLE [mPEG5K-(L1-7 Peptide)]

Continued, binder first:

B3: PEG3.4K(L1-7 Peptide)2 (peptide)
chain: CGGGGGAQTNFMPMDDLEQRLYEQFILQQGLE
modifications: not fully specified (residue 1); printed as C-GGGGG-AQ-TNFMPMDDLEQRLYEQFILQQG-LE; also: dimer linked by PEG 3.4K via N-terminal Cys
IC50 (human Ang-2): 0.058 nM

Binder: B4
binding result [3]: no binding
